For experiment [1], the target named is T1, soluble human recombinant CD4 expressed in baculovirus (human, UniProt P01730 26-396, limits assumed).
T1 construct: Coated on plates for the ELISA and covalently immobilised on the sensor for BIAcore; Only called soluble; also called soluble CD4; CD4 expressed in the baculovirus
In words: SPR (BIAcore), CD4 immobilised, Exp. 1. How it is done:
(§1) The kinetic parameters of the binding of CD4 to the paratope of the Fab fragments of the 13B8.2 antibody were determined by analysis of the surface plasmon resonance by means of a BIAcore analyzer (BIAcore AB, Uppsala, Sweden).
A general note: Surface plasmon resonance follows binding to a sensor surface in real time, without labels.

For experiment [2], the target named is T2, membranous CD4 (wild human CD4 expressed on cells) (human, UniProt P01730 26-458).
T2 construct: whole, on cells; also called T A2.01/CD4 cells; T AN2.01/CD4 cells
The experiment in a line: flow cytometry, T A2.01/CD4 cells, Fab at 1 µg/ml, fluorescein-labeled anti-kappa chain antibody. The procedure:
(§2) The binding of the wild or mutant Fabs to the membranous CD4 was evaluated by flow cytometry.
(§3) In order to determine the binding of the fragments to the membranous CD4, T AN2.01 CD4+ cells were analyzed by indirect immunofluorescent labeling and flow cytometry (FIG. 4).

Experiment [3] has as its target T1, soluble human recombinant CD4 expressed …. The experiment in a line: SPR (BIAcore), CD4 immobilised, Exp. 2. How it is done: as §1
For experiment [4] the target is unchanged. In words: SPR (BIAcore), CD4 immobilised. How it is done:
as §1

For experiment [5], the target named is T2, membranous CD4 (wild human CD4 …). The experiment in a line: flow cytometry, T A2.01/CD4 cells, Fab at 10 µg/ml, fluorescein-labeled anti-kappa chain antibody. How it is done:
as §2, §3
A general note: In flow cytometry, cells or beads pass a laser one at a time.

The target of experiment [6] is T1, soluble human recombinant CD4 expressed …. The experiment in a line: SPR (BIAcore), CD4 immobilised, Exp. 3. How it is done:
as §1

For experiment [7], the target named is T3, biotinylated human recombinant CD4 (Repligen Inc.) (human, UniProt P01730 26-394, limits assumed, biotinylated (sites not given)).
T3 construct: Probe of the Spot membranes, used at 1 µg/ml; also called biotinylated CD4; CD4 probe
The experiment in a line: quantified Spot reactivity, membrane probed with biotinylated CD4. The procedure: The antigenic reactivity of the peptides bound to the cellulose membrane was tested with biotinylated CD4 (1 μg/ml) under conditions that led to the production of a blue precipitate for the reactive spots as described in [Bès, 2001b].

B1: control mutant Fab V61-H of the 13B8.2 antibody (Fab, V domains shown)
VH: QVQLKQSGPGLVQPSQSLSITCTVSGFSLTTFGVHWVRQSPGKGLEWLGVIWRSGITDYNAPFMSRLSITKDNSKSQVFFKLNSLQPDDTAIYYCAKNDPGTGFAYWGQGTLVTVSA
VL: DIQMTQSPASLSASVGETVTFTCRASENIYSYLAWYQQKQGKSPQLLVHDAKTLAEGVPSRFSGGGSGTQFSLKINTLQPEDFGTYYCQHHYGNPPTFGGGTKLEIK
notes: Chimeric Fab with human CH1-γ1 and Cκ; baculovirus/Sf9; Control position, not a Spot contributor residue; also called V61-Hcontrol
A word on the Kd: it is the equilibrium constant for the complex coming apart. What is called koff is a measure of how fast the partners let go of each other. For orientation: kon means a measure of how fast the partners come together. With B1, in experiment [1], the Kd was 2 nM, the koff turned out to be 0.000172 s⁻¹ and the kon came out at 86800 M⁻¹ s⁻¹. For the same molecule, the “percent of cells under the marker bar of the histogram” value (from here on “percent of cells”) in experiment [2] came to 62.9%. In experiment [3], the Kd was determined as 2.9 nM, the koff stood at 0.000324 s⁻¹ and the kon stood at 112000 M⁻¹ s⁻¹.

B2: mutant Fab W52-H of the 13B8.2 antibody (Fab, V domains shown)
VH: QVQLKQSGPGLVQPSQSLSITCTVSGFSLTTFGVHWVRQSPGKGLEWLGVIARSGITDYNVPFMSRLSITKDNSKSQVFFKLNSLQPDDTAIYYCAKNDPGTGFAYWGQGTLVTVSA
VL: DIQMTQSPASLSASVGETVTFTCRASENIYSYLAWYQQKQGKSPQLLVHDAKTLAEGVPSRFSGGGSGTQFSLKINTLQPEDFGTYYCQHHYGNPPTFGGGTKLEIK
notes: Chimeric Fab with human CH1-γ1 and Cκ; baculovirus/Sf9
On to B2, for which, in experiment [4], the Kd was determined as 3.62 µM, the koff was found to be 0.000859 s⁻¹ and the kon came out at 237 M⁻¹ s⁻¹.

B3: mutant Fab R38-H of the 13B8.2 antibody (Fab, V domains shown)
VH: QVQLKQSGPGLVQPSQSLSITCTVSGFSLTTFGVHWVAQSPGKGLEWLGVIWRSGITDYNVPFMSRLSITKDNSKSQVFFKLNSLQPDDTAIYYCAKNDPGTGFAYWGQGTLVTVSA
VL: DIQMTQSPASLSASVGETVTFTCRASENIYSYLAWYQQKQGKSPQLLVHDAKTLAEGVPSRFSGGGSGTQFSLKINTLQPEDFGTYYCQHHYGNPPTFGGGTKLEIK
notes: as for B2
For B3, the “percent of cells” value in experiment [2] amounted to 48%. In experiment [4], the Kd was determined as 0.859 µM, the koff is 0.00014 s⁻¹ and the association rate constant (kon) was 163 M⁻¹ s⁻¹.

B4: mutant Fab W36-H of the 13B8.2 antibody (Fab, V domains shown)
VH: QVQLKQSGPGLVQPSQSLSITCTVSGFSLTTFGVHAVRQSPGKGLEWLGVIWRSGITDYNVPFMSRLSITKDNSKSQVFFKLNSLQPDDTAIYYCAKNDPGTGFAYWGQGTLVTVSA
VL: DIQMTQSPASLSASVGETVTFTCRASENIYSYLAWYQQKQGKSPQLLVHDAKTLAEGVPSRFSGGGSGTQFSLKINTLQPEDFGTYYCQHHYGNPPTFGGGTKLEIK
notes: as for B2
With B4, in experiment [4], the dissociation constant Kd amounted to 0.0154 µM, the off-rate constant (koff) was 0.000271 s⁻¹ and the kon came out at 17600 M⁻¹ s⁻¹. Besides, the “percent of cells” value in experiment [5] was found to be 65.5%.

B5: mutant Fab F32-H of the 13B8.2 antibody (Fab, V domains shown)
VH: QVQLKQSGPGLVQPSQSLSITCTVSGFSLTTAGVHWVRQSPGKGLEWLGVIWRSGITDYNVPFMSRLSITKDNSKSQVFFKLNSLQPDDTAIYYCAKNDPGTGFAYWGQGTLVTVSA
VL: DIQMTQSPASLSASVGETVTFTCRASENIYSYLAWYQQKQGKSPQLLVHDAKTLAEGVPSRFSGGGSGTQFSLKINTLQPEDFGTYYCQHHYGNPPTFGGGTKLEIK
notes: Chimeric Fab with human CH1-γ1 and Cκ; baculovirus/Sf9; also called F32 mutant Fab
With B5, the Kd was 13.5 nM in experiment [1], 16.9 nM in experiment [6] and 17 nM in experiment [3]. For the same molecule, the koff worked out at 0.000248 s⁻¹ in experiment [1], 0.00025 s⁻¹ in experiment [6] and 0.000246 s⁻¹ in experiment [3]. The kon was determined as 18300 M⁻¹ s⁻¹ in experiment [1], 14800 M⁻¹ s⁻¹ in experiment [6] and 14400 M⁻¹ s⁻¹ in experiment [3]. For the same molecule, the “percent of cells” value in experiment [5] is 82.4%.

B6: mutant Fab H35-H of the 13B8.2 antibody (Fab, V domains shown)
VH: QVQLKQSGPGLVQPSQSLSITCTVSGFSLTTFGVAWVRQSPGKGLEWLGVIWRSGITDYNVPFMSRLSITKDNSKSQVFFKLNSLQPDDTAIYYCAKNDPGTGFAYWGQGTLVTVSA
VL: DIQMTQSPASLSASVGETVTFTCRASENIYSYLAWYQQKQGKSPQLLVHDAKTLAEGVPSRFSGGGSGTQFSLKINTLQPEDFGTYYCQHHYGNPPTFGGGTKLEIK
notes: as for B2
Take B6: in experiment [4], the Kd amounted to 6.28 µM, the koff came out at 0.00189 s⁻¹ and the kon came to 301 M⁻¹ s⁻¹. Besides, the “percent of cells” value in experiment [5] was found to be 33.6%.

B7: mutant Fab W103-H of the 13B8.2 antibody (Fab, V domains shown)
VH: QVQLKQSGPGLVQPSQSLSITCTVSGFSLTTFGVHWVRQSPGKGLEWLGVIWRSGITDYNVPFMSRLSITKDNSKSQVFFKLNSLQPDDTAIYYCAKNDPGTGFAYAGQGTLVTVSA
VL: DIQMTQSPASLSASVGETVTFTCRASENIYSYLAWYQQKQGKSPQLLVHDAKTLAEGVPSRFSGGGSGTQFSLKINTLQPEDFGTYYCQHHYGNPPTFGGGTKLEIK
notes: as for B2
B7: in experiment [4], the Kd came out at 4.03 µM, the koff worked out at 0.00112 s⁻¹ and the kon is 278 M⁻¹ s⁻¹. Moreover, in experiment [5], the “percent of cells” value turned out to be 6.76%.

B8: mutant Fab R53-H of the 13B8.2 antibody (Fab, V domains shown)
VH: QVQLKQSGPGLVQPSQSLSITCTVSGFSLTTFGVHWVRQSPGKGLEWLGVIWASGITDYNVPFMSRLSITKDNSKSQVFFKLNSLQPDDTAIYYCAKNDPGTGFAYWGQGTLVTVSA
VL: DIQMTQSPASLSASVGETVTFTCRASENIYSYLAWYQQKQGKSPQLLVHDAKTLAEGVPSRFSGGGSGTQFSLKINTLQPEDFGTYYCQHHYGNPPTFGGGTKLEIK
notes: as for B2
B8: in experiment [4], the Kd is 29.2 µM, the off-rate constant (koff) was 0.0105 s⁻¹ and the kon amounted to 359 M⁻¹ s⁻¹. In experiment [5], the “percent of cells” value turned out to be 43.2%.

B9: mutant Fab F100K-H of the 13B8.2 antibody (Fab, V domains shown)
VH: QVQLKQSGPGLVQPSQSLSITCTVSGFSLTTFGVHWVRQSPGKGLEWLGVIWRSGITDYNVPFMSRLSITKDNSKSQVFFKLNSLQPDDTAIYYCAKNDPGTGAAYWGQGTLVTVSA
VL: DIQMTQSPASLSASVGETVTFTCRASENIYSYLAWYQQKQGKSPQLLVHDAKTLAEGVPSRFSGGGSGTQFSLKINTLQPEDFGTYYCQHHYGNPPTFGGGTKLEIK
notes: as for B2
Turning to B9, in experiment [4], the Kd worked out at 0.845 µM, the koff was determined as 0.000475 s⁻¹ and the kon worked out at 562 M⁻¹ s⁻¹.

B10: mutant Fab C92-H of the 13B8.2 antibody (Fab, V domains shown)
VH: QVQLKQSGPGLVQPSQSLSITCTVSGFSLTTFGVHWVRQSPGKGLEWLGVIWRSGITDYNVPFMSRLSITKDNSKSQVFFKLNSLQPDDTAIYYAAKNDPGTGFAYWGQGTLVTVSA
VL: DIQMTQSPASLSASVGETVTFTCRASENIYSYLAWYQQKQGKSPQLLVHDAKTLAEGVPSRFSGGGSGTQFSLKINTLQPEDFGTYYCQHHYGNPPTFGGGTKLEIK
notes: as for B2
Consider B10, for which the “percent of cells” value in experiment [2] came out at 76.5%. Moreover, in experiment [4], the Kd turned out to be 0.0037 µM, the koff is 0.000358 s⁻¹ and the kon came to 96100 M⁻¹ s⁻¹.

B11: mutant Fab Y32-L of the 13B8.2 antibody (Fab, V domains shown)
VH: QVQLKQSGPGLVQPSQSLSITCTVSGFSLTTFGVHWVRQSPGKGLEWLGVIWRSGITDYNVPFMSRLSITKDNSKSQVFFKLNSLQPDDTAIYYCAKNDPGTGFAYWGQGTLVTVSA
VL: DIQMTQSPASLSASVGETVTFTCRASENIYSALAWYQQKQGKSPQLLVHDAKTLAEGVPSRFSGGGSGTQFSLKINTLQPEDFGTYYCQHHYGNPPTFGGGTKLEIK
notes: as for B2
For B11, in experiment [4], the Kd came to 8.93 µM and the koff came out at 0.000585 s⁻¹.

B12: hexapeptide 52WRSGIT57 of the CDR-H2 region of 13B8.2 (peptide)
peptide: WRSGIT
notes: Spot peptide on cellulose membrane; also called peptide 2
For B12, the binding result in experiment [7] was “binds”.
Still for that read-out and setting: the value for WRSGAT (also called WRSGAT) [alanine analogue of peptide 52WRSGIT57 with Ile56 replaced by Ala (dotted bar I56)] was “binds”; that for ARSGIT (also called ARSGIT) [alanine analogue of peptide 52WRSGIT57 with Trp52 replaced by Ala (dotted bar W52)] was “binds”; that for WRAGIT (also called WRAGIT) [alanine analogue of peptide 52WRSGIT57 with Ser54 replaced by Ala (dotted bar S54)] was “binds”.
On the same count and under the same terms, the value for WRSAIT (also called WRSAIT) [alanine analogue of peptide 52WRSGIT57 with Gly55 replaced by Ala (dotted bar G55)] was “binds”; that for WRSGIA (also called WRSGIA) [alanine analogue of peptide 52WRSGIT57 with Thr57 replaced by Ala (dotted bar T57)] was “binds”.

B13: hexapeptide 49GVIWRS54 of the CDR-H2 region of 13B8.2 (peptide)
peptide: GVIWRS
notes: also called peptide 1; control peptide 1
For B13, the binding result in experiment [7] is reported as “binds”.

B14: alanine analogue of peptide 49GVIWRS54 with Ile51 replaced by Ala (peptide)
peptide: GVAWRS
notes: Spot peptide on cellulose membrane; also called GVAWRS
As to B14, in experiment [7], the binding result is “binds”.

B15: alanine analogue of peptide 49GVIWRS54 with Gly49 replaced by Ala (peptide)
peptide: AVIWRS
notes: Spot peptide on cellulose membrane; also called AVIWRS
Take B15: the binding result in experiment [7] is listed as “binds”.

The values above are taken from US20050226874A1 (CENTRE NATIONAL DE LA RECHERCHE SCIENTIFIQUE CNRS A …, published 2005).
